Laboratory results published in article doi:10.1101/2023.02.03.527063 (bioRxiv, 2023).

Target: T1, FLAG-tagged PXR K109A (human, UniProt O75469 1-434, K109A)
T1 sequence (looked up): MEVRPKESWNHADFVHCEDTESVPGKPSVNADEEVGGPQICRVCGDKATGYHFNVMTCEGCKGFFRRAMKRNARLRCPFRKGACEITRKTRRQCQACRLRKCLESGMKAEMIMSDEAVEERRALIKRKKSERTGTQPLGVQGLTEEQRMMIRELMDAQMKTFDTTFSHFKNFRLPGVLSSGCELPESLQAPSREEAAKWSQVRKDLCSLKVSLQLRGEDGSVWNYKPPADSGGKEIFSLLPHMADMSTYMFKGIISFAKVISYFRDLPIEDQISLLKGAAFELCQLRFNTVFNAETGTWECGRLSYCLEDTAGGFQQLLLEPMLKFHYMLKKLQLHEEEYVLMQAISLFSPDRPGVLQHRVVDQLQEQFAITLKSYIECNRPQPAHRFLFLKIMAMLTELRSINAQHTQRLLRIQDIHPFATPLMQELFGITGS
Assay: co-IP

interaction relative to that between FLAG-PXR and BRD9-His: 0.3 fold
B1: His-tagged BRD9 (natural protein, UniProt Q9H8M2 1-597, looked up)
chain: MGKKHKKHKAEWRSSYEDYADKPLEKPLKLVLKVGGSEVTELSGSGHDSSYYDDRSDHERERHKEKKKKKKKKSEKEKHLDDEERRKRKEEKKRKREREHCDTEGEADDFDPGKKVEVEPPPDRPVRACRTQPAENESTPIQQLLEHFLRQLQRKDPHGFFAFPVTDAIAPGYSMIIKHPMDFGTMKDKIVANEYKSVTEFKADFKLMCDNAMTYNRPDTVYYKLAKKILHAGFKMMSKQAALLGNEDTAVEEPVPEVVPVQVETAKKSKKPSREVISCMFEPEGNACSLTDSTAEEHVLALVEHAADEARDRINRFLPGGKMGYLKRNGDGSLLYSVVNTAEPDADEEETHPVDLSSLSSKLLPGFTTLGFKDERRNKVTFLSSATTALSMQNNSVFGDLKSDEMELLYSAYGDETGVQCALSLQEFVKDAGSYSKKVVDDLLDQITGGDHSRTLFQLKQRRNVPMKPPDEAKVGDTLGDSSSSVLEFMSMKSYPDVSVDISMLSSLGKVKKELDPDDSHLNLDETTKLLQDLHEAQAERGGSRPSSNLSSLSNASERDQHHLGSPSRLSVGEQPDVTHDPYEFLQSPEPAASAKT
